Results published in US12268749B2, “Cell-penetrating peptides” (Oxford University Innovation Limited, priority 2018, dated 2025).

Assays:
[1] = toxicological assessment of peptide-PMO in C57BL/6 mice (urinary KIM-1, NGAL; serum BUN); format: in vivo, mouse; conditions: 7 days after single dose of 30 mg/kg, FIG. 7
Procedure: Female C57BL/6 mice aged 8-10 weeks were administered a single 30 mg/kg dose of peptide-PMO in 0.9% saline by bolus intravenous tail vein injection. Urine was non-invasively collected under chilled conditions at Day 2 and Day 7 post-administration following 20 hours housing in metabolic cages (Tecniplast, UK). Serum was collected from jugular vein at Day 7 at necropsy, as was tibialis anterior, diaphragm and heart tissue.
The same procedure was followed at different single dosage amounts ranging from 2.5 mg/kg up to 50 mg/kg of peptide-PMO in 0.9% saline by intravenous tail vein injection.
Urinary levels of KIM-1 (Kidney injury molecule-1) and NGAL (Neutrophil Gelatinase-Associated Lipocalin) were quantified by ELISA (KIM-1 R&D cat #MKM100, NGAL R&D cat #MLCN20) following appropriate dilution of urine to fit standard curves. Values were normalised to urinary creatinine levels that were quantified at MRC Harwell Institute, Mary Lyon Centre, Oxfordshire, UK. Serum blood urea nitrogen levels were quantified at MRC Harwell Institute, Mary Lyon Centre, Oxfordshire, UK.
All levels were quanitifed on an AU680 Clinical Chemistry Analyser, Beckman Coulter.

exon 51 = conditions: in vivo; cited from earlier work

Substance | Serum blood urea nitrogen levels [1] | levels of dystrophin restoration (exon 51)
Ac-RXRRBRR-FQILY-RBRXR-B [Pip9b2] | elevated | –
eteplirsen | – | approximately 1 % of normal dystrophin levels
